The source of these data is patent publication US20260167959A1, “APTAZYME-BASED REGULATABLE GENE EXPRESSION SYSTEMS” (REJUVENATE BIO INC, priority 2022, published 2026).

First the molecules themselves.
B1: RA246 (nucleic acid)
DNA: GCGCGTCCTGGATTCGCGGAGAATACCAGCATCGTCTTGATGCCCTTGGAAGTCTCGAAACGCGTACATCCAGCTGACGAGTCCCAAATAGGACGAAACGCGC
modifications: expressed or natural sequence
B2: RA210: SEQ ID NO 210; theophylline inducible aptazyme (nucleic acid)
chain: GCTGTCACCGGAATACCAGCATCGTCTTGATGCCCTTGGAAGTCCGGTCTGATGAGTCCAAAAAGGACGAAACAGC
modifications: chemistry not given here
notes: theophylline inducible aptazyme
B3: RA247 (nucleic acid)
DNA: GCGCGTCCTGGATTCGCGGAAACGCGTACATCCAGCTGAGGAATACCAGCATCGTCTTGATGCCCTTGGAAGTCCCGAGTCCCAAATAGGACGAAACGCGC
modifications: expressed or natural sequence
B4: RA248 (nucleic acid)
DNA: GCGCGTCCTGGATTCGCGGAAACGCGTACATCCAGCTGACGAGTCCAGTGATACCAGCATCGTCTTGATGCCCTTGGCAGCACTCAAATAGGACGAAACGCGC
modifications: expressed or natural sequence
B5: RA245 (nucleic acid)
DNA: GGGAATACCAGCATCGTCTTGATGCCCTTGGAAGTCCCGCGTCCTGGATTCGCGGAAACGCGTACATCCAGCTGACGAGTCCCAAATAGGACGAAACGCGC
modifications: expressed or natural sequence
B6: RA249 (nucleic acid)
DNA: GCGCGTCCTGGATTCGCGGAAACGCGTACATCCACCGGAATACCAGCATCGTCTTGATGCCCTTGGAAGTCCGGGCTGACGAGTCCCAAATAGGACGAAACGCGC
modifications: expressed or natural sequence
B7: RA024 (nucleic acid)
DNA: GCGCGTCCTGGATTCGCGGAAACGCGTACATCCAGCTGACGAGTCCCAAATAGGACAGTGATACCAGCATCGTCTTGATGCCCTTGGCAGCACTGAAACGCGC
modifications: expressed or natural sequence
B8: RA250 (nucleic acid)
DNA: GCGCGAGTGATACCAGCATCGTCTTGATGCCCTTGGCAGCACTTCCTGGATTCGCGGAAACGCGTACATCCAGCTGACGAGTCCCAAATAGGACGAAACGCGC
modifications: expressed or natural sequence

The first data set has as its system Renilla luciferase RNA. Nature of the data set: Barcoded aptazyme variant library screen: un-cleaved Renilla luciferase RNA by barcode read counts, HEK293-T cells. To be noted: un-cleaved Renilla luciferase RNA, HEK293-T cells cultured with 1 mM theophylline (ON) over without theophylline (OFF); barcode read counts, triplicate. It counts as cell-based. A digest of the protocol: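 Aptazyme variants (seven theophylline aptamers inserted after each T3H48 ribozyme nucleotide, 9-nt barcoded) cloned into the 3′ UTR of Renilla luciferase in psiCHECK-2; cells cultured ± theophylline, in triplicate. RNA and DNA barcodes amplified and sequenced; normalized read counts gave un-cleaved RNA fraction and ON/OFF fold-change.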
In the case of B1, the “Fold change in RNA expression between the ON state and the OFF state” value (“Fold change” below) was found to be 1.1 fold. Take B2: the “Fold change” value was 1.2 fold.

On to B3, for which the “Fold change” value came to 1.1 fold. B4: the “Fold change” value came to 1.1 fold. Consider B5, for which the “Fold change” value worked out at 1.1 fold.

Take B6: the “Fold change” value came to 1.1 fold. On the same count and under the same terms, then B7, with 2.6 fold; and B8, with 1.1 fold.

The subject of a further data set is GFP.
Experiment: not given
Conditions: HEK293-T cells, dual FP plasmid, 24 hours post-transfection.
Take B2: the “Fold-change in GFP expression, presence of theophylline over absence of theophylline” value turned out to be 2.55 ×.
